The values below come from US6881824B1, “Peptides suitable for use in antigen specific immunosuppressive therapy” (Akzo Nobel N.V., priority 1996, dated 2005).

Ends that are not written are not given here. Where only a bound is given, the exact number is not on record here.

For one assay, the system named is Balb/c mouse. Put plainly: HC gp-39 administration in Balb/c mice (arthritis). It is filed as in vivo. To be noted: administration of HC gp-39.
In assay [1] the test system is PBMC from RA patients and healthy controls carrying the DR4 (DRB1*0401) specificity. Put plainly: Proliferative responses of blood mononuclear cells, RA patients and healthy donors taken together. It is filed as cell-based, human. To be noted: individual peptides; any donor. The procedure:
(§1) In order to identify T-cell epitopes within HC gp-39, 59 peptides of 16 AA in length, overlapping by 10 AA were tested for their capacity to induce a proliferative response in PBMC from RA patients and healthy controls carrying the DR4 (DRB1*0401) specificity (Table 1).
(§2) PBMC obtained from heparinized venous peripheral blood were isolated by standard centrifugation on a Ficoll-Paque gradient. Cells were cultured in four-fold at a concentration of 1,5×10^5 cells/well in medium supplemented with 10% heat-inactivated, autologous plasma, L-glutamine, 2-ME and antibiotics in flatbottomed microtiter plates. Cells were incubated in medium alone or in the presence of phytohaemagglutinin (PHA) (2:5 μg/ml) to assert cell viability, or in the presence of 10 or 100 μg/ml of the HC gp-39-derived peptides. In several cases, sets of 2 or 3 sequential peptides were tested due to limited PBMC numbers of individual donors. Cultures were incubated in a total volume of 210 μl for 7 days at […] in a humidified atmosphere of 5% CO2. Cultures were pulsed during the last 18 hours with 0.25 μCi ^3H-thymidine ([^3H]TdR). Cells were harvested on glassfiber filters and [^3H] TdR incorporation was measured by gas scintillation (Packard Matrix 96 βcounter). Only peptides inducing a proliferative response at both 10 and 100 μg/ml were considered to contain a T-cell epitope. Responses were defined positive if stimulation index values (SI, antigen-specific counts per 5 min (cp5 m)/background cp5 m) exceeded or equaled 2.
(§3) T-cell reactivity to HC gp-39-derived peptide as analyzed by measuring the PBMC proliferative response in DR4 (DRB1*0401)-positive RA patients and healthy donors. Proliferative responses were tested in autologous plasma. In Table IIIA and IIIB the results of 7 experiments are presented showing the responses of RA patients (Table IIIA) and the responses of healthy donors (Table IIIB) to 59 overlapping sequences derived from HC gp-39.

The subject of assay [2] is PBMC from healthy donors carrying the DR4 (DRB1*0401) specificity. Kind of assay: Peptide-induced proliferative responses of PBMC from healthy donors. It is filed as cell-based, human. The procedure: Peripheral blood samples from 5 healthy donors carrying the DR4(DRB1*0401) specificity were obtained with informed consent and included in this study as a control.
as §1, §2, §3

Assay [3] relates to PBMC from RA patients carrying the DR4 (DRB1*0401) specificity. Kind of assay: Peptide-induced proliferative responses of PBMC from RA patients. In kind it is cell-based, human. The method, boiled down:
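PBMC (1,5×10^5/well) from 7 DRB1*0401-positive RA patients were cultured 7 days in 10% autologous plasma with overlapping 16-mer HC gp-39 peptides at 10 or 100 μg/ml, sometimes as sets of 2–3 peptides. [3H]thymidine pulse over the final 18 h; positive when stimulation index ≥2 at both concentrations.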

Assay [4] deals with T1, DR4 (DRB1*0401) molecules (Homo sapiens, UniProt P01903+P01911, A100K/A169T/F76Y/I96L/K127E/L162R/M171V/N62H/P40V/Q125Y/R42H/S133A/S149N/S66Y/V115G/V209L/W38E).
T1 construct: molecules were purified from the homozygous EBV-transformed human B lymphoblastoid cell lines Huly138IC2 and BM92 using the mAb; endogenous in cells
Put plainly: Peptide HLA-DR binding assay (semi-quantitative competition binding). To be noted: for IC50: competition with biotinylated marker peptide HA 309 Y→F, pH5.0, 44 hr RT. The method, boiled down: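 HLA-DR from EBV B-cell lines (30 nM DRB1*0401 or 15 nM DRB1*0404) incubated 44 h at RT, pH 5.0, with 50 nM biotinylated HA 309 Y→F marker peptide and competitor peptide range. Bound marker captured on nitrocellulose, detected by streptavidin-HRP ECL; IC50 = concentration giving 50% signal reduction.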

In assay [5] the target is T2, DR4 (DRB1*0401) molecules purified from the homozygous EBV-transformed human B lymphoblastoid cell line … (human, UniProt P01903 26-254).
Assay [6] deals with T2, DR4 (DRB1*0401) molecules purified from …. Kind of assay: competition binding assay on purified DR4(DRB1*0401).

For “Human Cartilage glycoprotein 39 [HC gp-39]”, in the assay on Balb/c mouse, the Arthritic development result was “delayed and/or suppressed arthritic development” and the Immunological tolerance result is reported as “resulted in immunological tolerance”.

Turning to “YKLVCYYTSWSQYREG [peptide 1, YKLVCYYTSWSQYREG]”, in assay [1], the “Responses to the individual peptides (PBMC proliferation), identifying T-cell epitopes” value was “observed in one or more donors”. In addition, the “Presence of T-cell epitopes confirmed by PBMC of healthy donor 230” value in assay [2] (healthy donor 230) is “confirmed the presence of T-cell epitopes”. Further, in assay [2] (healthy donor 230, 0401, R, 100 and 10 microgram/ml, 7 days, 3H-thymidine incorporation), the “Peptide-induced proliferative response of PBMC, HD 230” value was “pos (positive responses to both 100 and 10 microgram/ml of peptide or sets of peptides (SI>2 were regarded positive))”. For the same molecule, the “Peptide-induced proliferative response of PBMC, RA 272” value in assay [3] (RA patient 272, 0401, R, 100 and 10 microgram/ml, 7 days, 3H-thymidine incorporation) was “pos (positive responses to both 100 and 10 microgram/ml of peptide or sets of peptides (SI≧2 were regarded positive))”. Moreover, in assay [3] (RA patient 272, individual peptides), the “Response of PBMC from RA patient 272 to individual peptides, in words” value is listed as “appeared to respond”. Further, in assay [4], the “Relative affinity of binding to DR4 (DRB1*0401), in words” value is reported as “relatively high affinity”. Also, the IC50 in assay [4] (Table IIIA) and in assay [4] (Table IIIB) was < 1000 nM in each case.

B1: HC gp-39 peptide 54 (residues 340-355) (peptide)
peptide: YLKDRQLAGAMVWALD
As for B1, in assay [5], the IC50 (usually the concentration that gives 50% inhibition) is < 1000 nM. In addition, in assay [6], the binding result is recorded as “binds”.

B2: HC gp-39 peptide 6 (residues 52-67) (peptide)
peptide: THIIYSFANISNDHID
For B2, the IC50 in assay [5] was < 1000 nM. The binding result in assay [6] is on record as “binds”.

B3: HC gp-39 peptide 30 (residues 196-211) (peptide)
peptide: QHLDFISIMTYDFHGA
Turning to B3, the IC50 in assay [5] was < 1000 nM. In addition, the binding result in assay [6] was “binds”.

B4: HC gp-39 peptide 4 (residues 40-55) (peptide)
peptide: SCFPDALDRFLCTHII
Molecule B4 displayed an IC50 in assay [5] of 10000 to 100000 nM. Further, the binding result in assay [6] is on record as “binds”.

B5: HC gp-39 peptide 1 (residues 22-37) (peptide)
peptide: YKLVCYYTSWSQYREG
Regarding B5, in assay [5], the IC50 was < 1000 nM. Moreover, in assay [6], the binding result is on record as “binds”.

B6: HC gp-39 peptide 5 (residues 46-61) (peptide)
peptide: LDRFLCTHIIYSFANI
Consider B6, for which the IC50 in assay [5] is < 1000 nM. The binding result in assay [6] was “binds”.

B7: HC gp-39 peptide 57 (residues 358-373) (peptide)
peptide: DFQGSFCGQDLRFPLT
B7 yielded an IC50 in assay [5] of 1000 to 10000 nM. For the same molecule, the binding result in assay [6] is listed as “binds”.

B8: HC gp-39 peptide 15 (residues 106-121) (peptide)
peptide: FSKIASNTQSRRTFIK
notes: This is probably a misprint
With B8, the IC50 in assay [5] is < 1000 nM. Also, the binding result in assay [6] is on record as “binds”.

B9: HC gp-39 peptide 17 (residues 118-133) (peptide)
peptide: TFIKSVPPFLRTHGFD
Take B9: in assay [5], the IC50 was in the range of 1000 to 10000 nM. In assay [6], the binding result is given as “binds”.

B10: HC gp-39 peptide 37 (residues 238-253) (peptide)
peptide: DYAVGYMLRLGAPASK
For the molecule B10, in assay [5], the IC50 was < 1000 nM. Further, the binding result in assay [6] is recorded as “binds”.
